We go through five substances from article PMC3858243.

pKd: −log10 of the molar value.

This series has as its system 30S ribosomal subunit (with S1). The series is described as follows: filter binding. Particulars: no initiator tRNA; Not given in the material for EMSA, SPR and filter binding (buffer with monovalent ions and MgCl2; RNA renatured 90°C 1 min, ice, then 25°C 30 min).

Usually pKd stands for the negative decadic logarithm of the Kd, by convention in mol/L. A higher pKd goes with a low Kd.

rpsO mRNA gave a pKd of 6.00. The same measure, in the same setting: under sodB mRNA stands 6.00; under thrS mRNA, 6.00. For the substance thrSSD mRNA, the binding signal (fold higher affinity than WT thrS) came to 5.

In the case of rpsOSD mRNA, the binding signal (fold higher affinity than WT rpsO) was determined as 5.
